This is an account of results in PMC9499646, “Histidine-Rich Glycoprotein Suppresses the S100A8/A9-Mediated Organotropic Metastasis of Melanoma Cells” (International Journal of Molecular Sciences, 2022).

The assay has as its target T1, histidine-rich glycoprotein (HRG), human plasma (human, UniProt P04196 19-525, glycosylated (a total of about 20-KDa glycosyl chains)).
T1 construct: histidine-rich glycoprotein, human plasma protein; 525 amino acids before processing and secretion; In the pull-down three bands (BP1, BP2, BP3) were all identified as HRG; BP2 and BP3 were estimated to be proteolytic products of BP1; also called plasma HRG; BP1; source: endogenous, healthy human plasma (pull-down)
T1 sequence (looked up): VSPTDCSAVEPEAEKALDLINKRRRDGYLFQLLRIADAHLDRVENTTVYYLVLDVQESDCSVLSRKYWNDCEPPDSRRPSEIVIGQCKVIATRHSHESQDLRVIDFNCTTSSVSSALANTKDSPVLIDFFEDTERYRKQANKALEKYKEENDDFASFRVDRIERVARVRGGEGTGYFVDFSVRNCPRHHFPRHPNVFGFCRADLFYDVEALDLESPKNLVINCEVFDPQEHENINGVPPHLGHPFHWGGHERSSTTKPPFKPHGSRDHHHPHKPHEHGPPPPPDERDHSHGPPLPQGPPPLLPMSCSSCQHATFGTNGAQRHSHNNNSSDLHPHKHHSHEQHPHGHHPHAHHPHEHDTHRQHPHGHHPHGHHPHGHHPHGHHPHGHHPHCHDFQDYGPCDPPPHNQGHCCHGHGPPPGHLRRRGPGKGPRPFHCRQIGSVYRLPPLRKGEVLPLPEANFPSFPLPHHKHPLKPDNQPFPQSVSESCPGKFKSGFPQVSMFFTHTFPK
As to the kind of experiment: ELISA; 96-well plate coated with purified HRG (100 µg/mL); blocked with Blockmaster DB1130; biotinylated S100A8/A9 at different concentrations; HRP-streptavidin, TMB; background of wells without HRG deducted. Conditions: both partners purified. For orientation: An ELISA detects its analyte on a solid surface through an enzyme-linked reagent.

B1: human recombinant S100A8/A9 heterodimer (complex)
chain 1: MLTELEKALNSIIDVYHKYSLIKGNFHAVYRDDLKKLLETECPQYIRKKGADVWFKELDINTDGAVNFQEFLILVIKMGVAAHKKSHEESHKE
chain 2: MTCKMSQLERNIETIINTFHQYSVKLGHPDTLNQGEFKELVRKDLQNFLKKENKNEKVIEHIMEDLDTNADKQLSFEEFIMLMARLTWASHEKMHEGDEGPGHHHKPGLGEGTP
modifications: biotinylated in the ELISA (chain and site not stated) | biotinylated in the ELISA (chain and site not stated)
notes: S100A8 (Calgranulin A), human; S100A9 (Calgranulin B), human; Biotinylated in the ELISA; no biotin is mentioned for the cell assays; also called recombinant human S100A8/A9 heterodimer complex; biotinylated human recombinant S100A8/A9 protein; source: recombinant, highly purified, prepared as described previously [43]
As to B1, the binding result was “binds”.
